In patent US6458943 (INSTITUT NATIONAL DE LA SANTE ET DE LA RECHERCHE MEDICALE, dated 2002):

B1: in vitro-translated 35S-labelled hD52 (pTL1hD52) (other)
chain: MDRGEQGLLRTDPVPEEGEDVAATISATETLSEEEQEELRRELAKVEEEIQTLSQVLAAKEKHLAEIKRKLGINSLQELKQNIAKGWQDVTATSAYKKTSETLSQAGQKASAAFSSVGSVITKKLEDVKNSPTFKSFEEKVENLKSKVGGTKPAGGDFGEVLNSAANASATTTEPLPEKTQESL
modifications: 35S-methionine label
B2: in vitro-translated 35S-labelled hD54-ins2 (pTL1hD54-ins2) (other)
chain: MDSAGQDINLNSPNKGLLSDSMTDVPVDTGVAARTPAVEGLTEAEEEELRAELTKVEEEIVTLRQVLAAKEKHCGELKRRLGLSTLGELKQNLSRSWHDVQVSSAYKKTQETLSQAGQKTSAALSTVGSAISRKLGDMRNSATFKSFEDRVGTIKSKVVGDRENGSDNLPSSAGSGDKPLSDPAPF
modifications: 35S-methionine label
B3: in vitro-translated 35S-labelled mD52 (pTL1mD52) (other)
chain: MDRGEQGLLKTEPVAEEGEDAVTMLSAPEALTEEEQEELRRELTKVEEEIQTLSQVLAAKEKHLAELKRKLGISSLQEFKQNIAKGWQDVTATNAYKKTSETLSQAGQKASAAFSSVGSVITKKLEDVKNSPTFKSFEEKVENLKSKVGGAKPAGGDFGEVLNSTANATSTMTTEPPPEQMTESP
modifications: 35S-methionine label
B4: hD52 interactor (GAL4 activation domain fusion, pAD-GAL4hD52) (other)
chain: PSALFGGANFNQSGNIADSSLSFTFTNSSNGPNLITTQTNSQALSQPIASSNVHDNFMNNEITASKIDDGNNSKPLSPGWTDQTAYNAFGITTGMFNTTTMDDVYNYLFDDEDTPPNPKKEMDRGEQGLLRTDPVPEEGEDVAATISATETLSEEEQEELRRELAKVEEEIQTLSQVLAAKEKHLAEIKRKLGINSLQELKQNIAKGWQDVTATSAYKKTSETLSQAGQKASAAFSSVGSVITKKLEDVKNSPTFKSFEEKVENLKSKVGGTKPAGGDFGEVLNSAANASATTTEPLPEKTQESL
notes: range 761-881; also called hD52^c
B5: +5 hD53 library interactor (novel hD53 isoform, pAD-GAL4 clone) (other)
chain: PSALFGGANFNQSGNIADSSLSFTFTNSSNGPNLITTQTNSQALSQPIASSNVHDNFMNNEITASKIDDGNNSKPLSPGWTDQTAYNAFGITTGMFNTTTMDDVYNYLFDDEDTPPNPKKESSWLPWSEVLHRPWRNHPICLLETEPLQGTDEDAVASADFSSMLSEEEKEELKAELVQLEDEITTLRQVLSAKERHLVEIKQKLGMNLMNELKQNFSKSWHDMQTTTAYKKTHETLSHAGQKATAAFSNVGTAISKKFGDMRRK
notes: range 761-881; also called nt 1 (Ser^1)
B6: hD53 library interactor, pAD-GAL4 clone beginning at nt 111 of the hD53 cDNA (<Met1) (other)
chain: PSALFGGANFNQSGNIADSSLSFTFTNSSNGPNLITTQTNSQALSQPIASSNVHDNFMNNEITASKIDDGNNSKPLSPGWTDQTAYNAFGITTGMFNTTTMDDVYNYLFDDEDTPPNPKKEMEAQAQGLLETEPLQGTDEDAVASADFSSMLSEEEKEELKAELVQLEDEITTLRQVLSAKERHLVEIKQKLGMNLMNELKQNFSKSWHDMQTTTAYKKTHETLSHAGQKATAAFSNVGTAISKKFGDMSYSIRHSISMPAMRNSPTFKSFEERVETTVTSLKTKVGGTNPNGGSFEEVLSSTAHASAQSLAGGSRRTKEEELQC
notes: range 761-881; also called nt 111 (<Met^1)
B7: hD53 library interactor, pAD-GAL4 clone beginning at nt 81 of the hD53 cDNA (<Met1) (other)
chain: B6 chain
notes: range 761-881; also called nt 81 (<Met^1)
B8: hD53 interactor (GAL4 activation domain fusion, pACT2hD53) (other)
chain: ANFNQSGNIADSSLSFTFTNSSNGPNLITTQTNSQALSQPIASSNVHDNFMNNEITASKIDDGNNSKPLSPGWTDQTAYNAFGITTGMFNTTTMDDVYNYLFDDEDTPPNPKKEMEAQAQGLLETEPLQGTDEDAVASADFSSMLSEEEKEELKAELVQLEDEITTLRQVLSAKERHLVEIKQKLGMNLMNELKQNFSKSWHDMQTTTAYKKTHETLSHAGQKATAAFSNVGTAISKKFGDMSYSIRHSISMPAMRNSPTFKSFEERVETTVTSLKTKVGGTNPNGGSFEEVLSSTAHASAQSLAGGSRRTKEEELQC
notes: range 768-881
B9: hD54-ins2 interactor (GAL4 activation domain fusion, pACT2hD54-ins2) (other)
chain: ANFNQSGNIADSSLSFTFTNSSNGPNLITTQTNSQALSQPIASSNVHDNFMNNEITASKIDDGNNSKPLSPGWTDQTAYNAFGITTGMFNTTTMDDVYNYLFDDEDTPPNPKKEMDSAGQDINLNSPNKGLLSDSMTDVPVDTGVAARTPAVEGLTEAEEEELRAELTKVEEEIVTLRQVLAAKEKHCGELKRRLGLSTLGELKQNLSRSWHDVQVSSAYKKTQETLSQAGQKTSAALSTVGSAISRKLGDMRNSATFKSFEDRVGTIKSKVVGDRENGSDNLPSSAGSGDKPLSDPAPF
notes: range 768-881
B10: hD54+ins2 interactor (GAL4 activation domain fusion, pACT2hD54+ins2) (other)
chain: ANFNQSGNIADSSLSFTFTNSSNGPNLITTQTNSQALSQPIASSNVHDNFMNNEITASKIDDGNNSKPLSPGWTDQTAYNAFGITTGMFNTTTMDDVYNYLFDDEDTPPNPKKEMDSAGQDINLNSPNKGLLSDSMTDVPVDTGVAARTPAVEGLTEAEEEELRAELTKVEEEIVTLRQVLAAKEKHCGELKRRLGLSTLGELKQNLSRSWHDVQVSSAYVKTSEKLGEWNEKVTQSDLYKKTQETLSQAGQKTSAALSTVGSAISRKLGDMRNSATFKSFEDRVGTIKSKVVGDRENGSDNLPSSAGSGDKPLSDPAPF
notes: range 768-881
B11: mD52(1-163) interactor (GAL4 activation domain fusion, pACT2mD52(1-163)) (other)
chain: ANFNQSGNIADSSLSFTFTNSSNGPNLITTQTNSQALSQPIASSNVHDNFMNNEITASKIDDGNNSKPLSPGWTDQTAYNAFGITTGMFNTTTMDDVYNYLFDDEDTPPNPKKEMDRGEQGLLKTEPVAEEGEDAVTMLSAPEALTEEEQEELRRELTKVEEEIQTLSQVLAAKEKHLAELKRKLGISSLQEFKQNIAKGWQDVTATNAYKKTSETLSQAGQKASAAFSSVGSVITKKLEDVKNSPTFKSFEEKVENLKSKVGGAKPAGGDFGEVLN
notes: range 768-881

biological target: GST protein (glutathione S-transferase alone) (UniProt P08515 1-218 = GST); experiment: GST pull-down, autoradiography
Sequence (P08515 whole entry): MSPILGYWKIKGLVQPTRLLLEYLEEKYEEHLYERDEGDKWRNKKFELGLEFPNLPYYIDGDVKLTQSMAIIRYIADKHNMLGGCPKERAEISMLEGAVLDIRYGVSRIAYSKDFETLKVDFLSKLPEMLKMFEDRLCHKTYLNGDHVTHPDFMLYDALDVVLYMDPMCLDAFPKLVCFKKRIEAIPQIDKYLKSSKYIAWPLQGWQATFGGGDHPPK
Method: Proteins were isolated by incubating E. coli samples in isotonic lysis buffer (10 mM potassium phosphate pH 8.0, 140 mM KCl, 3 mM MgCl_2, 1 mM DTT, 0.5% Nonidet P-40, 0.5 mM PMSF) for 15 min on wet ice, followed by brief sonication. Protein product sizes were verified by electrophoresing pre- and post-induction protein samples on 10% SDS-polyacrylamide gels, followed by Coomassie Brilliant Blue staining. Post-induction protein extracts were incubated with glutathione-agarose (Sigma) which had been previously saturated in 0.5% (w/v) BSA (fraction V, Boehringer-Mannheim). Recombinant proteins (2–5 μg) bound to 30 μl glutathione agarose were then incubated with 7 μl of each in vitro translation reaction, and 2.6 mg soluble BL21 protein extract, prepared as described in Ausubel, F. M., el al., *Current Protocols in Molecular Biology* Vol. 3 (1996), for 2 h at 4° C. Matrixes were washed 3 times with 1 ml cold buffer (50 mM potassium phosphate pH 7.5, 150 mM KCl, 10 mM MgCl_2, 10% (v/v) glycerol, 1% Triton X-100, 0.5 mM PMSF), and bound proteins were eluted in 12 μl SDS-loading buffer (50 mM Tris pH 6.8, 2% (w/v) SDS, 10% (v/v) glycerol, 10% (v/v) 2-mercaptoethanol) by boiling for 5 min. Eluted proteins (6 μl) were separated on 10% SDS-polyacrylamide gels, which were stained with Coomassie Brilliant Blue, dried, and exposed to autoradiographic film (BioMax, Kodak) for 10 days at −80° C.

binding result	Binder
no binding	B1
no binding	B2
no binding	B3

biological target: T1, hD53 bait (GAL4 DNA-binding domain fusion, pAS2-1hD53) (human, UniProt P04386 1-147 (Saccharomyces cerevisiae entry)); experiment: yeast two-hybrid screening of a human breast carcinoma cDNA library in Y190 (His+ lacZ+)
T1 construct: Fusion expressed in yeast; also called full-length hD53 bait

binding result	Binder
binds	B4
binds	B5
binds	B6
binds	B7

biological target: T2, hD52 bait (GAL4 DNA-binding domain fusion, pAS2-1hD52) (human, UniProt P04386 1-147 (Saccharomyces cerevisiae entry)); experiment: yeast two-hybrid, Y190 co-transfectants, HIS3/lacZ reporters; interactor (GAL4-AD fusion) against bait (GAL4-DB fusion)
T2 construct: Fusion expressed in yeast; also called full-length hD52 bait
Method: (§1) Interactions between baits and interactors were assessed by qualitatively and/or quantitatively determining HIS3 and/or lacZ reporter gene activity in Y190 co-transfectants.
(§2) Interactions between D52-like proteins within the yeast two-hybrid system, as measured by quantitative β-galactosidase assays. […] Three (or two*) colonies from each co-transfected Y190 strain were cultured in the absence of histidine, and assayed separately for β-galactosidase activity (see Methods). The mean number of β-galactosidase activity units obtained for each co-transfection is presented, ± the standard error.

binding result	Binder
binds	B8
binds	B4
binds	B9
binds	B10
binds	B11

biological target: T1, hD53 bait (GAL4 DNA-binding domain …); experiment: as above
Method: as §1, §2

binding result	Binder
binds	B8
binds	B9
binds	B10
binds	B11

biological target: T3, hD54+ins2 bait (GAL4 DNA-binding domain fusion, pAS2-1hD54+ins2) (human, UniProt P04386 1-147 (Saccharomyces cerevisiae entry)); experiment: as above
T3 construct: Fusion expressed in yeast
Method: as §1, §2

binding result	Binder
binds	B8
binds	B4
binds	B9
binds	B10
binds	B11

biological target: T4, hD54-ins2 bait (GAL4 DNA-binding domain fusion, pAS2-1hD54-ins2) (human, UniProt P04386 1-147 (Saccharomyces cerevisiae entry)); experiment: as above
T4 construct: Fusion expressed in yeast
Method: as §1, §2

binding result	Binder
binds	B8
binds	B4
binds	B9
binds	B10
binds	B11
